Entries after “also recorded” stand apart in the source; their conditions may differ.
Tests used:
Tritrichomonas muris = test: Metronidazole in drinking water of WT (BIH) mice: T. muris abundance in stool DNA by qPCR; assay type: in vivo; conditions: metronidazole 2.5 g/L in drinking water for 1 week
Procedure: (§1) Antibiotic treatment—Mice were treated with metronidazole (2.5 g/L) with 1% sucrose in the drinking water for 7 days. Control mice were given 1% sucrose water over the same time span. Fluid intake was monitored and metronidazole solution was changed 4 days after initiating antibiotic treatment.
Tritrichomonas muris enumeration—The distal 10 cm of small intestine was removed and flushed with ice-cold sterile PBS using a 19-gauge feeding needle. The intestinal contents were then pelleted by centrifugation and stored at −20° C. Genomic DNA was isolated from the stool with QIamp Fast DNA Stool mini kit (Qiagen) according to the manufacturer's directions. To detect and enumerate Tritrichomonas muris, quantitative PCR (qPCR) was performed using KAPPA SYBR fast Universal PCR (KAPPA Biosystems) with the following primers recognizing T. muris 28S rRNA gene: 5′-[…]-3′(SEQ ID NO. 1) and 5′-[…]-3′ (SEQ ID NO. 2). To convert qPCR values into parasite numbers, T. muris trophozoytes were isolated and counted using a hemocytomer before extracting genomic DNA and analyzing by qPCR. […] The T. muris 28S rRNA gene and Eubacteria 16S rRNA gene were amplified by qPCR and T. muris 28S relative abundance was calculated as 2^−ΔCt(28S-16S).

tuft cells = test: Metronidazole in drinking water of WT (BIH) mice: tuft cell frequency in the epithelium; assay type: in vivo; conditions: metronidazole 2.5 g/L in drinking water for 1 week, vs control
Procedure: as §1
Histology and Fluorescence microscopy —The small intestine was removed and divided into proximal and distal sections before fixation in 4% paraformaldehyde. The tissue was then embedded in paraffin and cut into 5 μm thick sections. For both histology and immunofluorescence, sections were initially deparaffinized and rehydrated. Hematoxylin and eosin (H&E) staining was performed using standard procedures. Goblet cells were identified by alcian blue/nuclear red staining and enumerated along the crypt-villus axis by quantitative microscopy. For immunofluorescence, heat-mediated antigen retrieval was performed in Tris-EDTA buffer 0.05% Tween-20 pH 9.0 for 20 minutes. Afterwards, the slides were washed in PBS and blocked in PBS containing 3% BSA, 3% donkey serum, 0.1% Triton X-100, 0.1% saponin for 1 hour at room temperature. Primary antibodies were incubated overnight at 4° C. and secondary antibodies were applied for 1.5 hours at room temperature. […]

[1] = system: tuft cells in small intestinal organoids; test: Small intestinal organoids treated with recombinant cytokine: GFP+ tuft cell abundance by flow cytometry; assay type: cell-based, mice; conditions: 48 hours; for effect on tuft cell numbers / abundance in organoids (in words): WT and Trpm5-/- organoids, IL-13 10 ng/ml or IL-25 50 ng/ml; for tuft cells of total organoid cells: IL-13 10 ng/ml, untreated 0.3%
Procedure: Small intestine organoid culture and flow cytometry—Distal small intestinal organoids were prepared as previously described (Miyoshi et al., Nat Protoc. 8, 2471-2482 (2013)). To assess cytokine effects on tuft cells abundance, IL-13 (10 ng/ml, Biolegend, Endotoxin level <0.01 ng/μg) or IL-25 (50 ng/mil, Biolegend, Endotoxin level <0.01 ng/μg) were added to organoid media for 48 hours. To perform flow cytometry, organoids were liberated from the matrigel matrix as described by Miyoshi et al. and digested in DMEM containing 10% FBS, 0.5 units/ml Dispase II (StemCell Technologies), 50 μg/ml DNase (Roche) for 8 minutes at 37° C. The resulting solution was filtered through 40 μm mesh and stained for flow cytometry with APC-conjugated anti-EpCam (clone G8.8, Biolegend) with cell viability assessed with PI (Biolegend).

[2] = system: eosinophils and tuft cells of the distal small intestine; test: In vivo IL-25 i.p. injections in T. muris colonized Trpm5-/- mice: eosinophils and tuft cells of distal small intestine; conditions: 0.5 μg IL-25 i.p. daily for 7 days, vs PBS
Procedure: Epithelial cell isolation and flow cytometry —The distal 10 cm of small intestine was removed and flushed as described above. The intestine was opened longitudinally and gently agitated at 4° C. in PBS, 2% FBS, 5 mM EDTA, 1 mM DTT for 10 min. The tissue was then transferred into prewarmed PBS, 2% FBS, 5 mM EDTA and rotated at 37° C. for 15 minutes followed by vigorous shaking to remove epithelial cells. This was repeated and epithelial cells from both fractions were combined and washed with PBS. The epithelium was then digested in DMEM containing 10% FBS, 0.5 units/ml Dispase II (StemCell Technologies), 50 μg/ml DNase (Roche) for 12 minutes at 37° C. The resulting solution was passed through 40 μm filters and washed with PBS, 2% FBS, 1 mM EDTA. The resulting single cell suspension was initially Fc blocked with anti-CD16/CD32 (clone 93, Biolegend) and then stained with the following antibodies: PacBlue-conjugated anti-CD45 (clone 30-F11, Biolegend), APC-conjugated anti-EpCam (clone G8.8, Biolegend). The cell viability was assessed by propidium iodide (PI) (Biolegend) staining.
Lamina propria cell isolation and flow cytometry—The distal 10 cm of small intestine was collected and epithelial cells were removed as detailed above. […]

[3] = system: DCLK1 and Trpm5 expression in organoids; test: Small intestinal organoids treated with cytokine: gene expression by RT-qPCR; assay type: cell-based, mice; conditions: IL-13 treated organoids
Source text: RNA isolation and RT-PCR for in vivo and vitro tuft cells—Epithelial cells from Gfi1b^EGFP/+ mice were isolated and stained for Fluorescence Activated Cell Sorting (FACS) as previously detailed. Tuft cells were sorted based on GFP^+EpCam^+CD45^−PI^− while the remaining epithelial cells were GFP-EpCam^+CD45^−PI^−. RNA was then extracted from tuft cells and the remaining epithelium using RNeasy Micro Kit (Qiagen). Whole intestinal organoids were initially stored in RNAlater solution (Ambion) before extracting RNA using Qiazol (Qiagen) according to the manufacturer's directions. cDNA was synthesized using the iScript cDNA Synthesis Kit (Bio-Rad) and RT-qPCR was performed using the KAPA SYBR FAST Universal qPCR Kit (KAPA Biosystems). […]
Small intestine organoid culture and flow cytometry—Distal small intestinal organoids were prepared as previously described (Miyoshi et al., Nat Protoc. 8, 2471-2482 (2013)). […] The resulting solution was filtered through 40 μm mesh and stained for flow cytometry with APC-conjugated anti-EpCam (clone G8.8, Biolegend) with cell viability assessed with PI (Biolegend).

## Cc1ncc([N+](=O)[O-])n1CCO [metronidazole]
Tritrichomonas muris
  T. muris levels in stool (T. muris 28S rRNA relative to eubacteria 16S rRNA): eliminated T. muris; also recorded: below the limit of detection
Tuft cells
  tuft cell abundance / frequency in the epithelium: reduced tuft cell abundance; also recorded: reduces tuft cell frequency

B1: IL-25: recombinant IL-25 (Biolegend; R&D), parasite-induced cytokine, added to organoids or injected i.p. (protein, UniProt Q8VHH8 17-169, looked up)
Interleukin-25: VSLRIQEGCSHLPSCCPSKEQEPPEEWLKWSSASVSPPEPLSHTHHAESCRASKDGPLNSRAISPWSYELDRDLNRVPQDLYHARCLCPHCVSLQTGSHMDPLGNSVPLYHNQTVFYRRPCHGEEGTHRRYCLERRLYRVSLACVCVRPRVMA
[1]
  effect on tuft cell numbers / abundance in organoids (in words): did not increase tuft cell numbers
[2]
  distal small intestinal eosinophilia: restoration
  tuft cell abundance in distal small intestine: restoration

B2: IL-13: recombinant IL-13 (Biolegend), type 2 cytokine added to organoid media (protein, UniProt P20109 19-131, looked up)
Interleukin-13: APGPVPRSVSLPLTLKELIEELSNITQDQTPLCNGSMVWSVDLAAGGFCVALDSLTNISNCNAIYRTQRILHGLCNRKAPTTVSSLPDTKIEVAHFITKLLSYTKQLFRHGPF
[1]; Trpm5-/- organoids
  tuft cells of total organoid cells: 10.9%
[1]
  effect on tuft cell numbers / abundance in organoids (in words): increases tuft cell abundance
[1]; WT organoids
  tuft cells of total organoid cells: 11.9%
[3]
  expression of Dclk1 in organoids: increased
  expression of Trpm5 in organoids: increased

Source: patent US20220054591A1, “METHODS OF TREATING OF INFLAMMATORY BOWEL DISEASE AND PARASITE INFECTION” (President and Fellows of Harvard College, priority 2016, published 2022)
